Source: US20210061908A1 (IOMX THERAPEUTICS, published 2021)
Where a chain is given by its changes, count along the chain named. One block for each binder: values may come before it.

Tests used:
[1] = target: T1, extracellular domain (ECD) of human IGSF11 (VSIG3), HIS-tagged (human, UniProt Q5DX21 23-241, biotinylated in the ELISA of Example 4 (site not stated)); test: ELISA, coated IGSF11-HIS, IgG1 format; EC50 grade (* >1 nM, ** 0.05-1 nM, *** 0.02-0.05 nM, **** <0.02 nM)
T1 construct: also called HIS-IGSF11; IGSF11-HIS; not shown: HIS6 tag
T1 sequence: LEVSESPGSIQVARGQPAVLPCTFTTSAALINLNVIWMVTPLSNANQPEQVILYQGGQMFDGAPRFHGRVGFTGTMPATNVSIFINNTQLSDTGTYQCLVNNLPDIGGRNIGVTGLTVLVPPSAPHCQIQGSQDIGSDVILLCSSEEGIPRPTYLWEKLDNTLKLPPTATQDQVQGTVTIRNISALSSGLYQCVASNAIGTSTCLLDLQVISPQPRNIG

[2] = target: T2, extracellular domain (ECD) of murine IGSF11, biotinylated (mouse, UniProt P0C673 23-240, biotinylated (site not stated)); test: ELISA, scFv; RFU grade (*** >1.0, ** 0.5-1.0, * 0.1-0.5)
T2 construct: also called Mouse IGSF11; murine IGSF11 protein
T2 sequence: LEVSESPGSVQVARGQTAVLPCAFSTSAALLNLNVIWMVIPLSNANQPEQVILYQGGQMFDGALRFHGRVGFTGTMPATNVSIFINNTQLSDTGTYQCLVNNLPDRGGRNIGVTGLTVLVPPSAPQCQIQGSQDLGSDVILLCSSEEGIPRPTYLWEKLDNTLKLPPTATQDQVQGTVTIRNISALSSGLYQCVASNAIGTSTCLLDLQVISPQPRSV

[3] = target: T3, extracellular domain (ECD) of human IGSF11 (VSIG3), biotinylated (human, UniProt Q5DX21 23-241, biotinylated (site not stated)); test: as above
T3 construct: also called human IGSF11 protein
T3 sequence: T1 sequence

B1: A-025 (human IgG1 format) (antibody, V domains shown)
VH: QVQLVQSGAEVKKPGSSVKVSCKASGGTFSSYAISWVRQAPGQGLEWMGGIIPIFGTANYAQKFQGRVTITADESTSTAYMELTSLRSEDTAVYYCARGGWLRQNWFDPWGQGTLVTVSS
VL: SSELTQDPAVSVALGQTVRITCQGDSLRSYYASWYQQKPGQAPVLVIYGKNNRPSGIPDRFSGSSSGNTASLTITGAQAEDEADYYCNSRDSSGNHPRVFGGGTKLTVL
notes: human IgG1 format
EC50 [1]: 0.05 to 1 nM

B2: A-025 (scFv format) (scFv, V domains shown)
VH: B1 VH
VL: B1 VL
notes: scFv
relative fluorescent units (RFU), ELISA [2]: 0.1 to 0.5 rfu
relative fluorescent units (RFU), ELISA [3]: 0.1 to 0.5 rfu

B3: A-003 (human IgG1 format) (antibody, V domains shown)
VH: VQLVQSGAEVKKPGSSVKVSCKASGGTFSSYAISWVRQAPGQGLEWMGGIIPIFGTANYAQKFQGRVTITADESTSTAYMELSSLRSEDTAVYYCASPRIQLWAAGGFDYWGQGTLVTVSS
VL: QSALTQPASVSGSPGQSITISCTGTSSDVGGYNLVSWYQQHPGKAPKLMIYDVSNRPSGVSNRFSGSKSGNTASLTISGLQAEDEADYYCSSFTTSTTLVFGGGTKLTVL
notes: human IgG1 format
EC50 [1]: 0.05 to 1 nM

B4: A-003 (scFv format) (scFv, V domains shown)
VH: B3 VH
VL: B3 VL
notes: scFv
relative fluorescent units (RFU), ELISA [2]: 0.1 to 0.5 rfu
relative fluorescent units (RFU), ELISA [3]: 0.1 to 0.5 rfu

B5: A-010 (human IgG1 format) (antibody, V domains shown)
VH: QVQLVQSGAEVKKPGASVKVSCKASGYTFTSYGISWVRQAPGQGLEWMGWISAYNGNTNYAQKLQGRVTMTTDTSTSTAYMELRSLRSDDTAVYYCARVPAWSGQFDYWGQGTLVTVSS
VL: QSALTQPASVSGSPGQSITISCTGSSSDVGGYNYVSWYQQYPGKAPKLMIYDVRSRPSGVSNRFSGSKSGNTASLTISGLQAEDEADYYCTSYTSSNTLVIFGGGTKVTVL
notes: human IgG1 format
EC50 [1]: < 0.02 nM

B9: A-029 (scFv format) (scFv, V domains shown)
VH: QVQLVQSGAEVKKPGSSVKVSCKASGGTFSSYAISWVRQAPGQGLEWMGGIIPIFGTANYAQKFQGRVTITADESTGTAYMELSSLRSEDTAVYYCARSYYYYYGMDVWGQGTTVTVSS
VL: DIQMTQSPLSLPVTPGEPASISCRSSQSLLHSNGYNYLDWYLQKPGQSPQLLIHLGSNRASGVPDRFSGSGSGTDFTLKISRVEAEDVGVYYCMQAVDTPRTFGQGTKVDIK
notes: scFv
relative fluorescent units (RFU), ELISA [2]: 0.1 to 0.5 rfu
relative fluorescent units (RFU), ELISA [3]: 0.1 to 0.5 rfu

B12: A-023 (scFv format) (scFv, V domains shown)
VH: QVQLVQSGAEVKKPGSSVKVSCKASGGTFSSYAISWVRQAPGQGLEWMGGIIPIFGTANYAQKFQGRVTITADESTSTAYMELSSLRSEDTAVYYCARPKYSSGWFYYYGMDVWGQGTTVTVSS
VL: QSVLTQPPSVSAAPGQKVTISCSGSSSNIGNNYVSWYQQLPGTAPKLLIYDNNKRPSGIPDRFSGSKSGTSATLGITGLQTGDEADYYCGTWDSSLSVVFGGGTKLTVL
notes: scFv
relative fluorescent units (RFU), ELISA [2]: 0.1 to 0.5 rfu
relative fluorescent units (RFU), ELISA [3]: 0.5 to 1 rfu

B13: A-001 (human IgG1 format) (antibody, V domains shown)
VH: EVQLVESGGGLVKPGGSLRLSCAASGFTFSSYSMNWVRQAPGKGLEWVSSISSSSSYIYYADSVKGRFTISRDNAKNSLYLQMNSLRAEDTAVYYCVRSIIVQALGITSVFDIWGQGTMVTVSS
VL: AIRLTQSPSSLSASVGDRVTISCRASQIISNHLNWYQQKPGKAPKLLIYAASRLQTGVPSRFSGSGSETDYTLTISSLQPEDFATYYCQQSYSNPRTFGHGTKVEIK
notes: human IgG1 format
EC50 [1]: < 0.02 nM

Results, then the binder that gave them:

relative fluorescent units (RFU), ELISA [2]: 0.1 to 0.5 rfu
relative fluorescent units (RFU), ELISA [3]: 0.5 to 1 rfu
B6: A-024 (scFv format) (scFv, V domains shown)
VH: QMQLVQSGAEVKKPGSSVKVSCKASGGTFSSYAISWVRQAPGQGLEWMGWISAYNGNTNYAQKLQGRVTMTTDTSTSTAYMELRSLRSDDTAVYYCASLGSYGYTGAFDIWGQGTMATVSS
VL: B5 VL with S25T, Y41H, D52E, R54S, S55N, T91S, N97S, I101V, V108L

EC50 [1]: 0.02 to 0.05 nM
B7: A-033 (human IgG1 format) (antibody, V domains shown)
VH: QVQLVQSGAEVKKPGASVKVSCKASGYTFTSYGISWVRQAPGQGLEWMGWISAYNGNTNYAQKLQGRVTMTTDTSTSTAYMELRSLRSDDTAVYYCARDHSIVGATTFDYWGQGTLVTVSS
VL: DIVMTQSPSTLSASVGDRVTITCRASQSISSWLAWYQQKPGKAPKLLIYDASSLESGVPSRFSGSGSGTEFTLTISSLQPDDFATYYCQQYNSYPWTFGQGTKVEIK
notes: human IgG1 format

relative fluorescent units (RFU), ELISA [2]: 0.1 to 0.5 rfu
relative fluorescent units (RFU), ELISA [3]: 0.1 to 0.5 rfu
B8: A-028 (scFv format) (scFv, V domains shown)
VH: QVQLVQSGAEVKKPGSSVKVSCKASGGTFSSYAISWVRQAPGQGLEWMGGIIPIFGTANYAQKFQGRVTITADESTSTAYMELSSLRSEDTAVYYCARVGVEYQLLWYFDYWGQGTLVTVSS
VL: DIQMTQSPSSLSASVGDRVTLTCRTSQTISNYLNWYQQKPGKAPKLLVYAASNLQSWVPSRFSGSGSGTDFTLTISSLQPEDFATYYCQQSYNASFGGGTKVEFK
notes: scFv

relative fluorescent units (RFU), ELISA [2]: > 1 rfu
relative fluorescent units (RFU), ELISA [3]: 0.5 to 1 rfu
B10: A-022 (scFv format) (scFv, V domains shown)
VH: EVQLLESGPGLVKPSQTLSLTCTVSGGSISSGGYYWSWIRQHPGKGLEWIGYIYYSGSTYYNPSLKSRVTISVDTSKNQFSLKLSSVTAADTAVYYCARASRSTDYYFDYWGQGTLVTVSS
VL: QPGLTQPPSMSYGLGQTATLTCTGNRNNIGDQGAAWLQQHQGHPPKLLSYRNNNGPSGISERLSASRSGNTASLTISGLQPEDEADYYCSAWDSSLRAWVFGGGTKLTVL
notes: scFv

EC50 [1]: 0.05 to 1 nM
B11: A-023 (human IgG1 format) (antibody, V domains shown)
VH: B12 VH
VL: B12 VL
notes: human IgG1 format

relative fluorescent units (RFU), ELISA [2]: 0.1 to 0.5 rfu
relative fluorescent units (RFU), ELISA [3]: 0.1 to 0.5 rfu
B14: A-027 (scFv format) (scFv, V domains shown)
VH: QVQLVQSGAEVKKPGSSVKVSCKASGGTFSSYAISWVRQAPGQGLEWMGGIIPIFGTANYAQKFQGRVTITADKSTSTAYMELSSLRSEDTAVYYCARARGSTWGYFDYWGQGTLVTVSS
VL: EIVLTQSPASLSLSPGERVTLSCRASQSVSNYLAWYQQKPGQAPRLLIYDASNRATGIPARFSGSGSGTDFTLTISSLEPEDFAVYYCQQRDNWPLTFGGGTKVEIK
notes: scFv

relative fluorescent units (RFU), ELISA [2]: > 1 rfu
relative fluorescent units (RFU), ELISA [3]: > 1 rfu
B15: A-026 (scFv format) (scFv, V domains shown)
VH: QVQLQESGPGLVKPSQTLSLTCTVSGGSISSGGYYWSWIRQHPGKGLEWIGYIYYSGSTYYNPSLKSRVTISVDTSKNQFSLKLSSVTAADTAVYYCASWSLGTSNHGWFDPWGQGTLVTVSS
VL: QSVLTQPPSASGTPGQRVTISCSGSSSNIGSNTVNWYQQLPGTAPKLLISDNNNRPSGVPDRFSGSKSGTSASLAITGLQAEDEADYYCQSYDSNLSGWVFGGGTKLTVL
notes: scFv
